The results in this text go back to publication PMC9958085, “A novel mechanism underlying allosteric regulation of ADAMTS-13 revealed by hydrogen−deuterium exchange plus mass spectrometry” (Research and Practice in Thrombosis and Haemostasis, 2022).

The target in assay [1] is T1, N-terminal ADAMTS-13 fragment MDTCS (aa1-685) (UniProt Q76LX8 30-685).
T1 construct: signal peptide in the construct; ADAMTS-13, N-terminal fragment MDTCS (metalloprotease, disintegrin-like domain, first TSP1 repeat, cysteine-rich and spacer domain), aa1-685; The signal peptide and propeptide are probably removed on secretion (surmise); also called ADAMTS-13 variant truncated after spacer domain; source: Drosophila (S2) cell line, purified
T1 sequence (looked up): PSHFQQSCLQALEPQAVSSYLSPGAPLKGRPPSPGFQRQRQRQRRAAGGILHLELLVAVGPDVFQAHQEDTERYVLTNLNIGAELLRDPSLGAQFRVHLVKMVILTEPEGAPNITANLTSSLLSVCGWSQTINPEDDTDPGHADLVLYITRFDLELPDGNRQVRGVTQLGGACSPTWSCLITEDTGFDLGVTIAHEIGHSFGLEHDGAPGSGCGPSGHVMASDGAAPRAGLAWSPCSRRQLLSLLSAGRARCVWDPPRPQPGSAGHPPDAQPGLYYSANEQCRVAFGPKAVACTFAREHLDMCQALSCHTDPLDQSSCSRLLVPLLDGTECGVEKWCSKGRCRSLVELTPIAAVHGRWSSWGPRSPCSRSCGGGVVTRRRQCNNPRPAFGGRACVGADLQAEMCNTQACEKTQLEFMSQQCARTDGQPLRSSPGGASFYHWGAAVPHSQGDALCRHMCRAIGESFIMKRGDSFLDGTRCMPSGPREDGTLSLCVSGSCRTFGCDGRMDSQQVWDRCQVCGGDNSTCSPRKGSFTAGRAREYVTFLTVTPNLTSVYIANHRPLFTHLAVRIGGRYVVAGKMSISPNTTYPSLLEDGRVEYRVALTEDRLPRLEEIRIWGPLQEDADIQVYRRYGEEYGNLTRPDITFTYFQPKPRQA
The assay can be described thus: SPR; CUB fragment immobilised on a CM5 chip through amine-coupling; N-terminal fragment perfused at 30 μl/min for 120 s, dissociation 300 s; KD from maximal RU as a function of concentration (0-1.0 μM), Prism 8.0. To be noted: both partners purified.

Assay [2] concerns the target T2, ADAMTS-13 CUB domain fragment.
T2 chain: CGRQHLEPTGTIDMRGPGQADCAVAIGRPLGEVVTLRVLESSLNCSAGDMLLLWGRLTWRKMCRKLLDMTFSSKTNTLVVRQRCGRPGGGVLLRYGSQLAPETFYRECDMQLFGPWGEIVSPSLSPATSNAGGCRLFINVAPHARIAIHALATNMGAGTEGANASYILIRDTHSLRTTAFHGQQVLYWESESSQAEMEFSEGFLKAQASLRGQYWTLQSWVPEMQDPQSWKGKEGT
The description is as above. The conditions noted are these: both partners purified.

B1: ADAMTS-13 CUB domain fragment (domain or fragment)
chain: CGRQHLEPTGTIDMRGPGQADCAVAIGRPLGEVVTLRVLESSLNCSAGDMLLLWGRLTWRKMCRKLLDMTFSSKTNTLVVRQRCGRPGGGVLLRYGSQLAPETFYRECDMQLFGPWGEIVSPSLSPATSNAGGCRLFINVAPHARIAIHALATNMGAGTEGANASYILIRDTHSLRTTAFHGQQVLYWESESSQAEMEFSEGFLKAQASLRGQYWTLQSWVPEMQDPQSWKGKEGT
modifications: CUB1+CUB2 taken from the conventional CUB1 start to the C-terminus; HEK-293 expressed (likely N-glycosylated); amine-coupled to CM5 chip
The Kd is a measure of binding affinity in units of concentration. Low values mean tighter binding, high ones weaker binding. As for B1, the Kd in assay [1] was 330 nM.

B2: ADAMTS-13 construct consisting of a disintegrin, the first thrombospondin type 1 repeat, a cysteine-rich and a spacer domain (DTCS) (domain or fragment)
chain: RPQPGSAGHPPDAQPGLYYSANEQCRVAFGPKAVACTFAREHLDMCQALSCHTDPLDQSSCSRLLVPLLDGTECGVEKWCSKGRCRSLVELTPIAAVHGRWSSWGPRSPCSRSCGGGVVTRRRQCNNPRPAFGGRACVGADLQAEMCNTQACEKTQLEFMSQQCARTDGQPLRSSPGGASFYHWGAAVPHSQGDALCRHMCRAIGESFIMKRGDSFLDGTRCMPSGPREDGTLSLCVSGSCRTFGCDGRMDSQQVWDRCQVCGGDNSTCSPRKGSFTAGRAREYVTFLTVTPNLTSVYIANHRPLFTHLAVRIGGRYVVAGKMSISPNTTYPSLLEDGRVEYRVALTEDRLPRLEEIRIWGPLQEDADIQVYRRYGEEYGNLTRPDITFTYFQPKPRQA
modifications: disintegrin start by convention, end 685 from printed MDTCS limit; HEK-293 expressed (likely glycosylated) / CUB1+CUB2 taken from the conventional CUB1 start to the C-terminus; HEK-293 expressed …
As to B2, binding in assay [2] was characterised by a dissociation constant (Kd) of 460 nM. This lies in the sub-micromolar range.
